Target: lambda integrase Int-h/218 h/218 mutant (substitutions not given) (Bacteriophage lambda) (UniProt P03700)
Assay: cell_activity
Conditions: with IHF and XIS, CHO-DG44

Row | Sequence | activity (% fluorescent cells) (attP x attR.a) | activity (% fluorescent cells) (attP x attR)
1 | TCTGTTACAGGTCACTAATACCATCTAAGTAGTTGATTCATAGTGACTGCATATGTTGTGTTTTACAGTATTATGTAGTCTGTTTTTTATGCAAAATCTAATTTAATATATTGATATTTATATCATTTTACGTTTCTCGTTCAGCTTTTTTATACTAAGTTGGCATTATAAAAAAGCATTGCTTATCAATTTGTTGCAACGAACAGGTCACTATCAGTCAAAATAAAATCATTATTTGATTTC / GAAATCAAATAATGATTTTATTTTGACTGATAGTGACCTGTTCGTTGCAACAAATTGATAAGCAATGCTTTTTTATAATGCCAACTTAGTATAAAAAAGCTGAACGAGAAACGTAAAATGATATAAATATCAATATATTAAATTAGATTTTGCATAAAAAACAGACTACATAATACTGTAAAACACAACATATGCAGTCACTATGAATCAACTACTTAGATGGTATTAGTGACCTGTAACAGA / GCTGTTACAGGTCACTAATACCATCTATGTAGTTGATTCATATTGTCTGCATATCTTGTGTTTTACAGTATTATCTAGTCTGTTTTTTATCCAAAATCTAATTTATTATATTGATATTTATATCATTTTACGTTTCTCGTTCAGCTTTTTTATACTAACTTG / CAAGTTAGTATAAAAAAGCTGAACGAGAAACGTAAAATGATATAAATATCAATATAATAAATTAGATTTTGGATAAAAAACAGACTAGATAATACTGTAAAACACAAGATATGCAGACAATATGAATCAACTACATAGATGGTATTAGTGACCTGTAACAGC [attP ; attR.a] | 1.5 | –
2 | TCTGTTACAGGTCACTAATACCATCTAAGTAGTTGATTCATAGTGACTGCATATGTTGTGTTTTACAGTATTATGTAGTCTGTTTTTTATGCAAAATCTAATTTAATATATTGATATTTATATCATTTTACGTTTCTCGTTCAGCTTTTTTATACTAAGTTGGCATTATAAAAAAGCATTGCTTATCAATTTGTTGCAACGAACAGGTCACTATCAGTCAAAATAAAATCATTATTTGATTTC / GAAATCAAATAATGATTTTATTTTGACTGATAGTGACCTGTTCGTTGCAACAAATTGATAAGCAATGCTTTTTTATAATGCCAACTTAGTATAAAAAAGCTGAACGAGAAACGTAAAATGATATAAATATCAATATATTAAATTAGATTTTGCATAAAAAACAGACTACATAATACTGTAAAACACAACATATGCAGTCACTATGAATCAACTACTTAGATGGTATTAGTGACCTGTAACAGA / TCTGTTACAGGTCACTAATACCATCTAAGTAGTTGATTCATAGTGACTGCATATGTTGTGTTTTACAGTATTATGTAGTCTGTTTTTTATGCAAAATCTAATTTAATATATTGATATTTATATCATTTTACGTTTCTCGTTCAGCTTTTTTATACTAACTTG / CAAGTTAGTATAAAAAAGCTGAACGAGAAACGTAAAATGATATAAATATCAATATATTAAATTAGATTTTGCATAAAAAACAGACTACATAATACTGTAAAACACAACATATGCAGTCACTATGAATCAACTACTTAGATGGTATTAGTGACCTGTAACAGA [attP ; attR] | – | 2.3

From patent publication US20110189729
